In paper PMC6398608 (Nature medicine, 2018):
One block for each molecule: values may come before it.

Legend:
[1] = target: IL-2 receptor beta/gamma (Homo sapiens) (UniProt P14784); conditions: cited from earlier work
[2] = target: human interleukin-2 (recombinant IL-2, Humanzyme) (human, UniProt P60568); assay: SPR
[3] = target: human IL-2 crystallised with the F5111 Fab (human, UniProt P60568); assay: crystal structure
Chain of human IL-2 crystallised with the F5111 Fab (P60568 21-153): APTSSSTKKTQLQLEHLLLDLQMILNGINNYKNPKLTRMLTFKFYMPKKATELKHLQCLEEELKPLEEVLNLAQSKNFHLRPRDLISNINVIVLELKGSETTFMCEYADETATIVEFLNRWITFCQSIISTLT

Chain of IL-2 receptor beta/gamma (Homo sapiens) (P14784 27-240, chain 1 of 2): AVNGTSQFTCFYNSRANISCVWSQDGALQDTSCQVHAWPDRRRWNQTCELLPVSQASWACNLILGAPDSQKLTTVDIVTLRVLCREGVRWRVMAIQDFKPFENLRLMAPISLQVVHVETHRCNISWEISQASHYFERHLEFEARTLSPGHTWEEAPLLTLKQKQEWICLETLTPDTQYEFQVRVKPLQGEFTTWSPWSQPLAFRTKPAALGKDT
Chain of IL-2 receptor beta/gamma (Homo sapiens) (P31785 23-262, chain 2 of 2, further chain): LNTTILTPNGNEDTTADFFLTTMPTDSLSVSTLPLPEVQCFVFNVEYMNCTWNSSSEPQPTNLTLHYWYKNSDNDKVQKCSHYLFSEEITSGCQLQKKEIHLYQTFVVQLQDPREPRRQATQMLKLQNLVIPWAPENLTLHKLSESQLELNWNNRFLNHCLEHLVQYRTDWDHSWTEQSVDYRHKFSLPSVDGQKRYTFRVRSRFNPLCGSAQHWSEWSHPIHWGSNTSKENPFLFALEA
Chain of human interleukin-2 (recombinant IL-2, Humanzyme) (P60568 21-153): as the sequence (P60568 21-153) above

Molecule: IL-2 (from UniProt P60568)
Kd [1]: 1 nM

binding result [2]: binds
B1: F5111, fully human anti-human IL-2 IgG (antibody, V domains shown)
VH: QLQLQESGPGLVKPSQTLSLTCTVSGGSISSGGYYWSWIRQHPGKGLEWIGYIYYSGSTYYNPSLKSRVTISVDTSKNQFSLKLSSVTAADTAVYYCARTPTVTGDWFDPWGRGTLVTVSS
VL: NFMLTQPHSVSESPGKTVTISCTRSSGSIASNYVQWYQQRPGSSPTTVIYEDNQRPSGVPDRFSGSIDSSSNSASLTISGLKTEDEADYYCQSYDSSNVVFGGGTKLTVL

binding result [3]: binds
B2: F5111 Fab (Fab, V domains shown)
VH: QLQLQESGPGLVKPSQTLSLTCTVSGGSISSGGYYWSWIRQHPGKGLEWIGYIYYSGSTYYNPSLKSRVTISVDTSKNQFSLKLSSVTAADTAVYYCARTPTVTGDWFDPWGRGTLVTVSS
VL: NFMLTQPHSVSESPGKTVTISCTRSSGSIASNYVQWYQQRPGSSPTTVIYEDNQRPSGVPDRFSGSIDSSSNSASLTISGLKTEDEADYYCQSYDSSNVVFGGGTKLTVL
